The values below come from patent US20130023004A1 (WASHINGTON UNIVERSITY, published 2013).

One data set concerns the target plasma ADAMTS13 (human) (UniProt Q76LX8). In words: cell-based or functional assay.
In a further data set the target is T1, FRETS-rVWF71.
T1 chain: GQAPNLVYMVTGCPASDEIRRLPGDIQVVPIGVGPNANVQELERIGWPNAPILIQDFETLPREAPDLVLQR

Another data set deals with T2, plasma ADAMTS13 (human, UniProt Q76LX8 75-1427).
T2 construct: Not purified; enzyme source was plasma (about 6 nM ADAMTS13 in PNP by a literature value); also called ADAMTS13 in PNP (pooled normal plasma)
T2 sequence (looked up): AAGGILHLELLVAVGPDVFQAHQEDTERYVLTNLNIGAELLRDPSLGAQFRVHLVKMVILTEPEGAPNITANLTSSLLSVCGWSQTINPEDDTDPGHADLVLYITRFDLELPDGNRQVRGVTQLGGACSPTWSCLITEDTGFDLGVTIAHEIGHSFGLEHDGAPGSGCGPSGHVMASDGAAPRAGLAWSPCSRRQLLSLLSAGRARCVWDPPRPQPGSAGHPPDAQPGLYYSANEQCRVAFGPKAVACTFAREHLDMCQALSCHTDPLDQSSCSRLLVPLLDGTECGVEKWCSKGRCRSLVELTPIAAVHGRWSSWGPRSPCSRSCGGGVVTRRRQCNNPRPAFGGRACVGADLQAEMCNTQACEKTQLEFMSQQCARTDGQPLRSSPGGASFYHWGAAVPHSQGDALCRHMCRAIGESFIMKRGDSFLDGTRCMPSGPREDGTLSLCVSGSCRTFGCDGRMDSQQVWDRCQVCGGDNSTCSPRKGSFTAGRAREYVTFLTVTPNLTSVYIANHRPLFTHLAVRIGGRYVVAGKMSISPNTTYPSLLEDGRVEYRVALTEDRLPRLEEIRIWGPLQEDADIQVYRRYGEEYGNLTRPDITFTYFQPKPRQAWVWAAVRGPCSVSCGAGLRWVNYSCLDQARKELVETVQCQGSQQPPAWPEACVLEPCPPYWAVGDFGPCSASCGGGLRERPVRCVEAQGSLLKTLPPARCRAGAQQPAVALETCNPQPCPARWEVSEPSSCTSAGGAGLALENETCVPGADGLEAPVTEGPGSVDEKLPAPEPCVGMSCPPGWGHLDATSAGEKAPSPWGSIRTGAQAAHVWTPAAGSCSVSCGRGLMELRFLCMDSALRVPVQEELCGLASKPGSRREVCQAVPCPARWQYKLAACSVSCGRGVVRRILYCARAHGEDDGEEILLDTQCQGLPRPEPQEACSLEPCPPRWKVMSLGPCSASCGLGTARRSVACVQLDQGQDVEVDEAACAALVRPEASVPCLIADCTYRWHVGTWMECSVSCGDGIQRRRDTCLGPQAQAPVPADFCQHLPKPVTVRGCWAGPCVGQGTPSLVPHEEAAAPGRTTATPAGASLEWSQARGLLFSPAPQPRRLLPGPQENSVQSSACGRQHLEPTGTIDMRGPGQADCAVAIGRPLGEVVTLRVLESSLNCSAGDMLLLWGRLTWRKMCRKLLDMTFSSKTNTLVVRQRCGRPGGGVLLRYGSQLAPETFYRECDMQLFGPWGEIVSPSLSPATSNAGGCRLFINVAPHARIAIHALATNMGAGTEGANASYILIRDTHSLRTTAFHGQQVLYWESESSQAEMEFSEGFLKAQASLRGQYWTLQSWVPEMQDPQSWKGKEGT
In words: Michaelis-Menten kinetics of substrate cleavage by plasma ADAMTS13 (fluorescence). On the procedure:
In these experiments, FRETS-rVWF71 cleavage by plasma ADAMTS13 (50 μL) was assessed in 200 μL reactions containing 50 mM HEPES, pH 7.4, 10 mM CaCl₂, 150 mM NaCl, and 0.05% Tween-20, and varying concentrations of FRETS-rVWF71. The concentration of ADAMTS13 in PNP is ˜1.03 μg/ml (Feys, H. B., et al. J. Thromb. Haemost 4:955-62, 2006), or ˜6 nM for a molecular mass of 170 kDa. For each concentration of substrate, the relationship between product fluorescence and concentration was determined directly by cleaving FRETS-rVWF71 to completion with excess recombinant ADAMTS13 MDTCS (Feys, H. B., et al. J. Thromb. Haemost. 7:2088-95, 2009) and measuring the fluorescence. Control assays contained plasma that was completely deficient in ADAMTS13. The initial velocities (nM/min) as a function of substrate concentration were fitted to the Michealis-Menten equation by nonlinear regression analysis (Prism, GraphPad).

In turn, “Hemoglobin (from UniProt P69905 2-142; P68871 2-147)” returned an IC50 of inhibition of ADAMTS13 activity (FRETS-rVWF71 cleavage) with plasma ADAMTS13 (human) of 10 to 15 mg/mL.

B1: recombinant ADAMTS13 MDTCS (protein)
chain: AAGGILHLELLVAVGPDVFQAHQEDTERYVLTNLNIGAELLRDPSLGAQFRVHLVKMVILTEPEGAPNITANLTSSLLSVCGWSQTINPEDDTDPGHADLVLYITRFDLELPDGNRQVRGVTQLGGACSPTWSCLITEDTGFDLGVTIAHEIGHSFGLEHDGAPGSGCGPSGHVMASDGAAPRAGLAWSPCSRRQLLSLLSAGRARCVWDPPRPQPGSAGHPPDAQPGLYYSANEQCRVAFGPKAVACTFAREHLDMCQALSCHTDPLDQSSCSRLLVPLLDGTECGVEKWCSKGRCRSLVELTPIAAVHGRWSSWGPRSPCSRSCGGGVVTRRRQCNNPRPAFGGRACVGADLQAEMCNTQACEKTQLEFMSQQCARTDGQPLRSSPGGASFYHWGAAVPHSQGDALCRHMCRAIGESFIMKRGDSFLDGTRCMPSGPREDGTLSLCVSGSCRTFGCDGRMDSQQVWDRCQVCGGDNSTCSPRKGSFTAGRAREYVTFLTVTPNLTSVYIANHRPLFTHLAVRIGGRYVVAGKMSISPNTTYPSLLEDGRVEYRVALTEDRLPRLEEIRIWGPLQEDADIQVYRRYGEEYGNLTRPDITFTYFQPKPRQA
With B1, in the data set with FRETS-rVWF71, the “cleavage of the substrate (fluorescence)” value is “cleaving FRETS-rVWF71 to completion with excess recombinant ADAMTS13 MDTCS”.

B2: plasma ADAMTS13 (protein)
chain: AAGGILHLELLVAVGPDVFQAHQEDTERYVLTNLNIGAELLRDPSLGAQFRVHLVKMVILTEPEGAPNITANLTSSLLSVCGWSQTINPEDDTDPGHADLVLYITRFDLELPDGNRQVRGVTQLGGACSPTWSCLITEDTGFDLGVTIAHEIGHSFGLEHDGAPGSGCGPSGHVMASDGAAPRAGLAWSPCSRRQLLSLLSAGRARCVWDPPRPQPGSAGHPPDAQPGLYYSANEQCRVAFGPKAVACTFAREHLDMCQALSCHTDPLDQSSCSRLLVPLLDGTECGVEKWCSKGRCRSLVELTPIAAVHGRWSSWGPRSPCSRSCGGGVVTRRRQCNNPRPAFGGRACVGADLQAEMCNTQACEKTQLEFMSQQCARTDGQPLRSSPGGASFYHWGAAVPHSQGDALCRHMCRAIGESFIMKRGDSFLDGTRCMPSGPREDGTLSLCVSGSCRTFGCDGRMDSQQVWDRCQVCGGDNSTCSPRKGSFTAGRAREYVTFLTVTPNLTSVYIANHRPLFTHLAVRIGGRYVVAGKMSISPNTTYPSLLEDGRVEYRVALTEDRLPRLEEIRIWGPLQEDADIQVYRRYGEEYGNLTRPDITFTYFQPKPRQAWVWAAVRGPCSVSCGAGLRWVNYSCLDQARKELVETVQCQGSQQPPAWPEACVLEPCPPYWAVGDFGPCSASCGGGLRERPVRCVEAQGSLLKTLPPARCRAGAQQPAVALETCNPQPCPARWEVSEPSSCTSAGGAGLALENETCVPGADGLEAPVTEGPGSVDEKLPAPEPCVGMSCPPGWGHLDATSAGEKAPSPWGSIRTGAQAAHVWTPAAGSCSVSCGRGLMELRFLCMDSALRVPVQEELCGLASKPGSRREVCQAVPCPARWQYKLAACSVSCGRGVVRRILYCARAHGEDDGEEILLDTQCQGLPRPEPQEACSLEPCPPRWKVMSLGPCSASCGLGTARRSVACVQLDQGQDVEVDEAACAALVRPEASVPCLIADCTYRWHVGTWMECSVSCGDGIQRRRDTCLGPQAQAPVPADFCQHLPKPVTVRGCWAGPCVGQGTPSLVPHEEAAAPGRTTATPAGASLEWSQARGLLFSPAPQPRRLLPGPQENSVQSSACGRQHLEPTGTIDMRGPGQADCAVAIGRPLGEVVTLRVLESSLNCSAGDMLLLWGRLTWRKMCRKLLDMTFSSKTNTLVVRQRCGRPGGGVLLRYGSQLAPETFYRECDMQLFGPWGEIVSPSLSPATSNAGGCRLFINVAPHARIAIHALATNMGAGTEGANASYILIRDTHSLRTTAFHGQQVLYWESESSQAEMEFSEGFLKAQASLRGQYWTLQSWVPEMQDPQSWKGKEGT
On to B2, for which, in the data set with FRETS-rVWF71, the Km result was “Km of 1.8 µM” and the kcat entry was “kcat of 6.8 min^-1 at 30 °C”.

B3: FRETS-rVWF71 (peptide)
peptide: GQAPNLVYMVTGCPASDEIRRLPGDIQVVPIGVGPNANVQELERIGWPNAPILIQDFETLPREAPDLVLQR
modifications: Cys1610 modified with DyLight 633 (maleimide); N-terminal Gly modified with IRDye QC-1 (N-hydroxysuccinimidyl ester)
notes: Fluorogenic substrate; Recombinant peptide rVWF71 (extra N-terminal Gly = E1598G, N1610C, K1617R) labelled with fluorophore and quencher; also called VWF-rFRETS71; doubly-labeled substrate
As for B3, the binding result with plasma ADAMTS13 is “binds”.
